{
  "source": "the DeepSol protein solubility set",
  "data": [
    {"test": "soluble on expression in E. coli; label from the status in PepcDB or PDB records", "values": [
      {"sequence": "MGSDKIHHHHHHMYLKGDFHIHTNASDGKYTPEKVLELAKTAGINILAITDHDTTSSVKKAIAVGNELGIKVLPGIELSTLKNGESIHILGYFRDISYENKDFQNFLTEMQNYRVWRAKKIVENLDTYFNIKLDYASILKEASNVIARPHIARAILAKGYNYTYEYIFNNILNKESPAYIPNKKVSVEEGIKLLKAANAVVVLAHPVLIKKTPIEDFLKLDFDGIEAIYPMNSESDTERFLSLAKIYNKLVTAGSDFHTDDSSDTKHGRIGEIYLDENNIDILLSK", "soluble on expression in E. coli": "not soluble"},
      {"sequence": "GTRKCELQGLWRNELGSNMTISALDVAGTFSGSYQTAVTATNKQILVSPLKGAQQPPGTKGQQPTFGFTVQWQFADSTTVFVGQCFVDRRGKEMLEMAWLLREEVPSRKDTWKATRVGTNVFTRVK", "soluble on expression in E. coli": "soluble"},
      {"sequence": "MHPLLRRLDLNLLLVFDALYRHRNVGTAASELAISASAFSHALGRLRQGLDDELFLRQGNRMQPTQRAEHLAAAVAAALRALGEGLEEWRPFVPGQSQRTFVFAATDYTAFALLPPLMNRLQHSAPGVRLRLVNAERKLSVEALASGRIDFALGYDEEHERLPEGIQAHDWFADRYVVVARRDHPRLAGAPTLEGYLAERHAVVTPWNEDSGVIDRLLARSGLRREVAVQLPTVLAALFLAGSTDFLLTAPRHAARALAEAAGLALYPAPFDIPPYVLRLYSHVQHVGRDAHAWMIGQLKGLDISRTG", "soluble on expression in E. coli": "soluble"},
      {"sequence": "GMTDWQQALDRHVGVGVRTTRDLIRLIQPEDWDKRPISGKRSVYEVAVHLAVLLEADLRIATGATADEMAQFYAVPVLPEQLVDRLDQSWQYYQDRLMADFSTETTYWGVTDSTTGWLLEAAVHLYHHRSQLLDYLNLLGYDIKLDLFE", "soluble on expression in E. coli": "soluble"},
      {"sequence": "MGSDKIHHHHHHAQKNAAAVTLNLAKAVTQSPKTVLMSELASDVRYFPLETTDNCLLGNECSIIYAGNSIIAGDAQTRSFYRFDKNGKFMNKIGRQGQGPEEYAVGLLFFTDPDNQKLYVQDFQDIICYGFNGKFLRRIPAPHLNMGTGAVDGQGSILYCDNNYFMRKDNPQQLFLIDENGKKLKIWKGYMEPGKKYGVNLSTRDVMYCYGGDIYFKPALENLIYKIDANRKKTLAWKFDCSGKDVDVSANEIDPGKRFQSIAVQQVFESDRYFFVLYVLKNESFVGLYDKQKKSFSNVIIKDDLAAGFDFTPPGTGLGNQLANARMVGYLSKGKRYSKALLPERKKELDELINRLDEEDNPVMVVVTLK", "soluble on expression in E. coli": "not soluble"},
      {"sequence": "GSSGSSGDKKAYFYHSSFQILNVEYTEALNSPATHEYRTLSERIEAMITDEFRGSSLKSEFIRTHVVKLRKEGTGVVADVVMKFRSSKRNNRKVMKTRIQSVLRRLSSSGNLEIAPSNEITSLTDQDT", "soluble on expression in E. coli": "soluble"},
      {"sequence": "MGSDKIHHHHHHMQINRLTLTNFRGLTNSVLDFAPGFNLVVGVNGVGKTAVLEALRILLAKALPSFAEVRGFPGIGLTKDDITIDRKQAAIEVSFTHQAHTFSLLLSDQLEVVRDAVDEQKGLKDIRDIDELASLRHGQRPERGDPRLEGTLRGQTSERPRASGQLSPTPDRALKKSKPQPIVLYFSVRRAVPSPGTPKTKAGTPYQGIFEIERGLELGKIIEWWNSKATVAREAPDSRSAKQLTTTCNALERLLPHLSDWKVEDGNFTVCKVADVGVLNDESGEFEVKQETRRLPVQFLSDGERSLIAIGIDIAYRLASLNEDSETPLDDGEGIVLIDELDLHLHPQWQRTVVELLRTAFPKLQFICTTHSLFLIQSQRMGNLIQLDRIGDEEESAEQYHNQSIEDIAEEVQGIDLPQRSKRHVELMLAASEYYRALKKAEDDPNIPIEELKEKYEALSLRYSADPLVAAALDFRWETFVFKRNHATRR", "soluble on expression in E. coli": "not soluble"},
      {"sequence": "MSLKLYYQQAMLLPKTKEILLRWEGVLSAGQRKASNAVVINLKGKMDMLLWAVAGSGKTEMMFEGMDWALRQGFRICVASPRVDVCLELLPRLKEAFPSMDIVCLYGDSKDNYQGEQFVIATTHQLIRFYETFQVIFIDEVDAFPYAKDPFLEYAVMKARTKEGSTIIITATPEKKWQEECVKGKRNFVKIPGRYHREGHHHHHH", "soluble on expression in E. coli": "soluble"},
      {"sequence": "MENMIVIMAGGRSSRMGAEKPILKVNGKPMILRVYEESTKVGETLVAISKNTPKTRELCIKEGIPLIETPGEGYVEDVRYLLKELGSFVSVSADLPFVKACDIAEVKKAFDGKTSLTGVLPLSKVPTDLRPVVYKGYVIVGLNGVGFEGEKFYELSNPLLALNVNTPEELKLANRIAKLIG", "soluble on expression in E. coli": "soluble"},
      {"sequence": "VLDPLGPGAPVLVAGGRVTGQAVAAVLTRFGATPTVCDDDPVMLRPHAERGLPTVSSSDAVQQITGYALVVASPGFSPATPLLAAAAAAGVPIWGDVELAWRLDAAGCYGPPRSWLVVTGTNGKTTTTSMLHAMLIAGGRRAVLCGNIGSAVLDVLDEPAELLAVELSSFQLHWAPSLRPEAGAVLNIAEDHLDWHATMAEYTAAKARVLTGGVAVAGLDDSRAAALLDGSPAQVRVGFRLGEPAARELGVRDAHLVDRAFSDDLTLLPVASIPVPGPVGVLDALAAAALARSVGVPAGAIADAVTSFRVGRHRAEVVAVADGITYVDDSKATNPHAARASVLAYPRVVWIAGGLLKGASLHAEVAAMASRLVGAVLIGRDRAAVAEALSRHAPDVPVVQVVAGEDTGMPATVEVPVACVLDVAKDDKAGETVGAAVMTAAVAAARRMAQPGDTVLLAPAGASFDQFTGYADRGEAFATAVRAVIR", "soluble on expression in E. coli": "not soluble"},
      {"sequence": "MGSDKIHHHHHHMAFLDVKGIRKTFPGVVALDGVDLEIELGAVHVLAGENGAGKSTLIRALTGLLPLDGGSIHIDGRDALTDRSAFDLVAYVPQELSLFPHMSVAENLFMPFAKAGFGGRVLPYAEMNRQAGAILERFSIKARPEQKVKSIAVSDQQLLQIARATTNKRLKVLILDEPTSSLTTQEIDRLFRILRQFRDNGTAIVFVSHKMEEIFELGTTVTVLRNGKTVGHRPMAAVSEPELIRLMSGDEVQLDQLFQPACAPGETIVTVDGLCGQGFHDISFALRRGEILGFAGLVGAGRSEVMQSMFGFKKPTGGTVLLKGRPLKLGKPSAAVEAGMLYLSEERRLHGILPVLSLRENIGISVLDQTSRGGVISTARERGVVGEVIASYDIKASSPEKKIMFLSGGNQQKAIIGRAMARKPDVLIFDEPTRGIDIRNKVEIYKIMKRLAEDGVAIILVSSEMAELKRCASRIITMYSGKLSGEFATATTDTHTLVGAIIGSAQSGQPPAGAPSPVADLETGARCHVL", "soluble on expression in E. coli": "not soluble"},
      {"sequence": "EVDPAKCVLQGEDLHRAREKQTASFTLLCKDAAGEIMGRGGDNVQVAVVPKDKKDSPVRTMVQDNKDGTYYISYTPKEPGVYTVWVCIKEQHVQGSPFTVTVRRKH", "soluble on expression in E. coli": "soluble"},
      {"sequence": "MSSRYSERNGLSETEKMTLPKVRKRKAQLVDEIEALKNEVREVDEELDQVYYTHPKSKEYHKIVVNGRKKFNQDPWKALDWLASRNVVAKDPQALALWMKAGEGLSKSAIGEILGDNRPFALETLDRFTKEHKLHDVPIVPALRQYLFSFRLPGESQKINRILEKFAEVYANQNPSYGNADQAHTVAYSCIMVNTLLHNPNVKDKPSLEKYIEMNEQLLEKGAITIEQLTEVYESVSVTQFKIPDEVSTSGKGTVNDILLHAEREGWLFKQSSNPLFSGALSWKKRWFVLSENCLYYFDQMTDKEPKGIITLANVGIRKVEAPSRPFMFEIFSLSDGQIKACKTEQDGRLVEGRHSIYKICAVNDEDMRSWINAISRMMAPQQHLLARPKSTH", "soluble on expression in E. coli": "soluble"},
      {"sequence": "MGLELFLDLVSQPSRAVYIFAKKNGIPLELRTVDLVKGQHKSKEFLQINSLGKLPTLKDGDFILTESSAILIYLSCKYQTPDHWYPSDLQARARVHEYLGWHADCIRGTFGIPLWVQVLGPLIGVQVPEEKVERNRTAMDQALQWLEDKFLGDRPFLAGQQVTLADLMALEELMQPVALGYELFEGRPRLAAWRGRVEAFLGAELCQEAHSIILSILEQAAKKTLPTPSPEAYQAMLLRIARIP", "soluble on expression in E. coli": "soluble"},
      {"sequence": "MGSDKIHHHHHHMHYPPMIATTLPDGPEQTPLTAEIVLRYHLCWKHRDLDGVMALYHPDIQYHDFFQNRVLGHQELRDYVRACLPHEAGEDIVHSDRIRVDGSTAFIQYQVTVQGGDGLVAFQSSEAITVRDGLIWRVNEYATLVRQNGTGHANSGPRPATSRLGLSPRQLSTMAQDLEHYFRRQRPYLDPELDLQQVADASGYSRNQISYLLNQVLGQSFYRYVNQARLQHLMASLGDDSVEATIDELAFSAGFNSLSAFYKCFREHTGFTPKAYLKQISLRART", "soluble on expression in E. coli": "not soluble"},
      {"sequence": "MGHHHHHHSHDTISHQLEWRSLKSQETTGAGEDVEKQEQLLHCWWDCKLVQPLRKSVWQFLRNLELEIPFDPAIPLLGRYPKDYKSCCYKDTCTRMFIAALFTIAKTWNQPKCPTTIDWIKKMWHIYTMEYYAAIKNDEFMSFVGTWMKLETIILSKLSQGQ", "soluble on expression in E. coli": "not soluble"}
    ]}
  ]
}
